Literature values in publication PMC6716794.

Tests used:
thrombin ABE II = thrombin ABE II (UniProt P00734)
Thrombin (Homo sapiens) = Thrombin (Homo sapiens) (UniProt P00734)
thrombin ABE I = thrombin ABE I (UniProt P00734); assay: NMR

Chain of PAR3GEL (O00254 39-374): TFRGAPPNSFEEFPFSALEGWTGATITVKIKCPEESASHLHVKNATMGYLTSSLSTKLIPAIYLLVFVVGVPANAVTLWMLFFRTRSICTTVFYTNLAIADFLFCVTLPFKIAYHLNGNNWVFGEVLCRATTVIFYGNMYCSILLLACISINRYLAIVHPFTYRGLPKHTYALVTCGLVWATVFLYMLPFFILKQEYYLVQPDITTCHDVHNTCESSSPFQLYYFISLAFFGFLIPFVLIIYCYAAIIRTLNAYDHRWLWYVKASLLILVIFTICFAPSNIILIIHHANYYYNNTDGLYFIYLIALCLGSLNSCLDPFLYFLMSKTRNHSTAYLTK

Row | Kd (thrombin ABE II) | Kd (Thrombin (Homo sapiens)) | Kd (thrombin ABE I) | Substance
1 | 5.9 nM | 5.9 nM | – | GpIbα 269-286 (from UniProt P07359)
2 | – | – | 47000 nM | PAR3GEL (from UniProt O00254)
